{
  "source": "paper PMC8221637",
  "about": "(Science Advances, 2021)",
  "proteins": {"B1": {"name": "recombinant His-PIPKIγ (enzyme)", "chain": "MELEVPDEAESAEAGAVPSEAAWAAESGAAAGLAQKKAAPTEVLSMTAQPGPGHGKKLGHRGVDASGETTYKKTTSSTLKGAIQLGIGYTVGHLSSKPERDVLMQDFYVVESIFFPSEGSNLTPAHHFQDFRFKTYAPVAFRYFRELFGIRPDDYLYSLCNEPLIELSNPGASGSLFYVTSDDEFIIKTVMHKEAEFLQKLLPGYYMNLNQNPRTLLPKFYGLYCVQSGGKNIRVVVMNNILPRVVKMHLKFDLKGSTYKRRASKKEKEKSFPTYKDLDFMQDMPEGLLLDADTFSALVKTLQRDCLVLESFKIMDYSLLLGVHNIDQHERERQAQGAQSTSDEKRPVGQKALYSTAMESIQGGAARGEAIESDDTMGGIPAVNGRGERLLLHIGIIDILQSYRFIKKLEHTWKALVHDGDTVSVHRPSFYAERFFKFMSNTVFRKNSSLKSSPSKKGRGGALLAVKPLGPTAAFSASQIPSEREEAQYDLRGARSYPTLEDEGRPDLLPCTPPSFEEATTASIATTLSSTSLSIPERSPSETSEQPRYRRRTQSSGQDGRPQEEPPAEEDLQQITVQVEPACSVEIVVPKEEDAGVEASPAGASAAVEVETASQASDEEGAPASQASDEEDAPATDIYFFTDGRYWIYSPRHRRLRAVTLSASGTPTDERSWVYSPLHYSAQAPPASDGESDT"}},
  "molecular_target": "the molecule itself",
  "assay": "SEC",
  "data": [
    {"protein": "B1", "values": [
      {"measurement": "stoichiometry N", "value": 2}
    ]}
  ]
}
